Measured values reported in article PMC3498381, “Isolated Toll-like Receptor Transmembrane Domains Are Capable of Oligomerization” (PLoS ONE, 2012).
No end group written: not given here.

What was measured:
[1] = tested on: GpA TMD (functional ToxR chimera); assay: Dominant-negative (heterotypic) ToxR assay, GpA as dominant phenotype; type: cell-based; conditions: Miller units normalized to poly-Leu* = 1 and corrected for expression, lower = stronger interaction, N in table
Description: (§1) Next, we investigated heterotypic interactions of the TLRs. We specifically studied TLR2, TLR1, and TLR6 because they are cell surface expressed receptors known to form functional heterodimers. To determine the ability of these three cell surface TLRs to have heterotypic interactions within its family, we studied the ability of the TLR1, TLR2, and TLR6 TMDs to interact with the TLR receptors also expressed at the cell surface; namely, TLR1, TLR2, TLR4, TLR5, TLR6, and TLR10. We monitored these interactions using a dominant-negative ToxR assay (Fig. S1B) which works by having a second TMD expressed with a non-functional ToxR* intracellular domain. This ToxR* domain is incapable of binding the ctx promoter making any interactions with this second expressed TMD unable to produce the reporter enzyme. As such, any interaction between the functional ToxR and non-functional ToxR* TMDs will result in a reduction in signal output.
(§2) Figure 3 Cell- Surface Toll-like Recptor Heterotypic Interactions. (A) A dominant-negative ToxR assay was used to study heterotypic interactions of the cell-surface TLRs. Two TLR TMDs were encoded in the FHK12 E.coli reporter strain, one with a functional ToxR domain (dominant phenotype) and one with a nonfunctional ToxR* domain (negative phenotype). Interaction between the two different TMDs leads to a reduction in signal from that seen for homotypic interactions. The TMDs for GpA, TLR1, TLR2, and TLR6 were used with the functional ToxR domain while TMDs for poly-Leucine, TMD5, integrin αIIb, TLR1, TLR2, TLR4, TLR5, TLR6, and TLR10 were used with the nonfunctional ToxR* domain. Interactions were most prominent for the TLRs known to have heterotypic interactions – TLR2-TLR1 and TLR2-TLR6. […] We also saw interaction with the same TMD further validating the homotypic interactions. […] Each dominant phenotype was done in 3 technical replicates with each negative phenotype and >6 measurements made for each replicate. Error bars depict the standard error of the mean (n- Tables S3, S5, S7, S9). Western blots staining for MBP were performed to monitor expression levels of the constructs with the upper band being functional ToxR chimeras and the lower band being nonfunctional ToxR* chimeras – (B) GpA, (C) TLR1, (D) TLR2, and (E) TLR6. Significant differences for the same dominant phenotype were determined by use of the Tukey-Kramer test.
(§3) For heterotypic interactions one plasmid containing a functional ToxR domain (200 ng) and a second plasmid containing a non-functional ToxR* domain (200 ng) were co-transformed into chemically competent FHK12 E. coli (400 µL) by incubating on ice for 30 min, heat shock at 42°C for 90 s, incubation on ice for 2 min, and addition of SOC media (1600 µL) followed by incubation with shaking for 1 h at 37°C. This transformation mixture (50 µL) was then used to spread LB-agar plates containing cholaramphenicol (30 µg/mL), kanamycin (33 µg/mL), and ampicillin (100 µg/mL) and grown overnight at 37°C. Single colonies were selected from the plates and grown in 5 mL LB media containing cholaramphenicol (30 µg/mL), kanamycin (33 µg/mL), ampicillin (100 µg/mL), and arabinose (0.0025%) overnight (16–20 h) with shaking at 37°C. Analysis of activity was monitored as described in homotypic ToxR assays. Western blotting was done in the same manner as the homotypic ToxR assay with one band appearing for the functional ToxR construct and a second band for the nonfunctional ToxR* construct. Data were normalized to poly-Leu* Miller Units and corrected for varying protein expression levels using ImageJ (NIH) as previously reported.

[2] = tested on: TLR2 TMD (functional ToxR chimera); assay: Dominant-negative (heterotypic) ToxR assay, TLR2 as dominant phenotype; type: cell-based; conditions: Miller units normalized to poly-Leu* = 1 and corrected for expression, lower = stronger interaction, N in table
Description: as §1, §2, §3

[3] = Circular dichroism, helical content by CDNN; type: physicochemical; conditions: CD, CDNN analysis; 5-10 µM peptide, 10 mM C14-betaine micelles, 20 mM HEPES pH 7.4, 25°C, average of 9 scans
Experimental: Figure 4 Circular Dichroism Spectra of TLR1, TLR2, and TLR6 Synthetic TMD Peptides. Far-UV spectra of the synthetic TMD peptides at concentrations ranging from 5–10 µM in the presence of 10 mM C14-betaine detergent micelles. Spectra were collected at 25°C with a step size of 1 nm and are the average of 9 scans. All peptides had helical content >99% (Table S11) as determined using CDNN [63].
CD measurements were performed on a ChirascanPlus spectrometer (Applied Photophysics) using a 1.0 mm path length quartz cuvette. Peptides and C14-Betaine (3-(N,N-Dimethylmyristylammonio)propanesulfonate: Sigma) were co-dissolved in 2,2,2-trifluoroethanol. The organic solvent was removed by drying to a thin film using N2 and further dried overnight under reduced pressure to remove all traces of TFE. Samples were resusupended in a 20 mM HEPES buffer, pH 7.4, yielding a final C14-Betaine concentration of 10 mM. Peptide concentrations were determined using Beer-Lambert law with coumarin absorbance at 400 nm using ε400 of 39,300 M^−1 cm^−1 [62] and FITC absorbance at 495 nm using ε495 of 68,000 M^−1 cm^−1 (Invitrogen). Peptides were prepared such that final concentrations were in the 5–10 µM range. All CD spectra were measured at 25°C with a step size of 1 nm and are reported as the average of 9 scans. Data were not collected below 200 nm due to the high voltage and background noise from the C14-Betaine buffer. Helical content was determined using CDNN [63].

Row | Substance | Mean GpA-TMD* heterotypic interaction (ToxR signal) [1] | Mean TLR2-TMD* heterotypic interaction (ToxR signal) [2] | Helix content, 200-260 nm [3] | Helix content, 205-260 nm [3] | Helix content, 210-260 nm [3]
1 | TLR6*: TLR6 TMD chimera with nonfunctional ToxR* domain (negative phenotype) (GNRASITLLIVTIGATMLVLAVTVTSLCIYLGSLIN; also: fused to non-functional ToxR* (S87H) and maltose binding protein, ends not given here) | 1.0451 | 0.2588 | 99.90% | 100.00% | 100.00%
2 | TLR1*: TLR1 TMD chimera with nonfunctional ToxR* domain (negative phenotype) (GNRASITLLIVTIVATMLVLAVTVTSLCSYLGSLIN; also: fused to non-functional ToxR* (S87H) and maltose binding protein, ends not given here) | 0.8934 | 0.2198 | 99.70% | 99.90% | 99.90%
3 | TLR2*: TLR2 TMD chimera with nonfunctional ToxR* domain (negative phenotype) (GNRASALVSGMCCALFLLILLTGVLCGSLIN; cysteine pairing not given here; also: fused to non-functional ToxR* (S87H) and maltose binding protein, ends not given here) | 0.7284 | 0.1930 | 99.80% | 99.90% | 99.90%
